Paper PMC12631311, “Molecular Insights into IAHSP: Influence of the R1611W Mutation on the VPS9 Domain of Alsin” (ACS Omega, 2025)
Where a chain is given by its changes, count along the chain named. Numbers in names are those of the source. Where “and” joins values, the source holds several entries; their conditions need not be identical. Equal entries are not always repeated.

B1: human alsin VPS9 WT (C1551S/C1558S/C1647S) (domain or fragment, UniProt Q96Q42 1513-1657, looked up)
chain: KQPDIALLGFLGVQRKFWPATLSILGESKKVLPTTKDASFASAVESLQQISTTFTPSDKLKVIQQTFEEISQSVLASLHEDFLWSMDDLFPVFLYVVLRARIRNLGSEVHLIEDLMDPYLQHGEQGIMFTTLKASYYQIQREKLN
notes: alsin, human, VPS9 domain, residues 1513-1657 of UniProt Q96Q42, with three Cys to Ser changes in the construct called WT; Cloned in pET28b between NdeI and EcoRI; No cleavage of the tag is described; The N-terminal position is read from the forward primer (thrombin site before the ATG); The printed monomer mass of 16.6 kDa fits the domain without the tag; also called wild-type VPS9 domain
B2: human alsin VPS9 R1611W mutant (domain or fragment, UniProt Q96Q42 1513-1657, looked up)
chain: B1 chain with R99W
notes: alsin, human, VPS9 domain, residues 1513-1657 of UniProt Q96Q42; The pathological R1611W mutation was inserted by site-directed mutagenesis into the VPS9 WT (C1551S/C1558S/C1647S) construct; Same construct and tag as m1 with R1611W added; also called VPS R1611W

Molecular target: the molecule itself
Assay: SEC; Superdex 200 Increase 10/300 GL, 50 mM potassium phosphate pH 8.0, 150 mM NaCl, 0.5 mL/min, room temperature; 310 ug VPS9 WT or 270 ug VPS9 R1611W injected; apparent molecular weights from column calibration

Protein | stoichiometry N
B1 | 4
B2 | 4 and 6
